Experimental findings from US12065471B2, “B*44 restricted peptides for use in immunotherapy against cancers and related methods” (Immatics Biotechnologies GmbH, priority 2018, dated 2024) are described below.

One test addresses HLA-B*44:05 (Homo sapiens, UniProt P01889, A223V/A65T/A93T/A95T/D201E/D98Y/E176V/E187L/E204Q/E69K/G107R/H137Y/K202T/L105A/L119I/N104T/N87E/Q56L/Q94N/R106L/R155S/R180D/S101N/S121R/S35A/S48T/T118I/V36M/W191S/Y91S). Nature of the test: MHC binding assay (UV-ligand exchange, β2m ELISA, peptide exchange yield). Conditions: binding to HLA-B*44:05. The essentials:
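Peptide–HLA complexes formed by UV-ligand exchange of a UV-cleavable peptide for the test peptide. Exchange yield measured by β2m ELISA: complexes diluted 100-fold and captured on streptavidin, detected with HRP anti-β2m and TMB, read at 450 nm. Quantified against refolded HLA-A*02:01/MLA-001 monomer standards, 15-500 ng/ml.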
(An ELISA detects its analyte on a solid surface through an enzyme-linked reagent.)

The next test has as its system CD8+ T cells. Nature of the test: In vitro immunogenicity: T-cell priming with aAPCs loaded with peptide/MHC and anti-CD28, pMHC multimer readout. It counts as cell-based, human. Conditions: Table 10b, pMHC multimer readout after T-cell priming. As for the experimental part:
After three cycles of stimulation, the detection of peptide-reactive cells was performed by 2D multimer staining with B*44/SEQ ID NO: 469 (FIG. 3A), B*44/SEQ ID NO: 512 (FIG. 3B), B*44/SEQ ID NO: 9 (FIG. 3C), B*44/SEQ ID NO: 11 (D), B*44/SEQ ID NO: 17 (E), B*44/SEQ ID NO: 35 (F) or B*44/SEQ ID NO: 41 (FIG. 3G). Right panels (FIGS. 3A through 3G) show control staining of cells stimulated with irrelevant B*44/peptide complexes. Viable singlet cells were gated for CD8+ lymphocytes. Boolean gates helped excluding false-positive events detected with multimers specific for different peptides.
In order to obtain information regarding the immunogenicity of the TUMAPs of the present invention, the inventors performed investigations using an in vitro T-cell priming assay based on repeated stimulations of CD8+ T cells with artificial antigen presenting cells (aAPCs) loaded with peptide/MHC complexes and anti-CD28 antibody.
In order to perform in vitro stimulations by artificial antigen presenting cells loaded with peptide-MHC complex (pMHC) and anti-CD28 antibody, the inventors first isolated CD8+ T cells from fresh HLA-A*02 leukapheresis products via positive selection using CD8 microbeads (Miltenyi Biotec, Bergisch-Gladbach, Germany) of healthy donors obtained from the University clinics Mannheim, Germany, after informed consent.
PBMCs and isolated CD8+ lymphocytes were incubated in T-cell medium (TCM) until use consisting of RPMI-Glutamax (Invitrogen, Karlsruhe, Germany) supplemented with 10% heat inactivated human AB serum (PAN-Biotech, Aidenbach, Germany), 100 U/ml Penicillin/100 μg/ml Streptomycin (Cambrex, Cologne, Germany), 1 mM sodium pyruvate (CC Pro, Oberdorda, Germany), 20 μg/ml Gentamycin (Cambrex). 2.5 ng/ml IL-7 (PromoCell, Heidelberg, Germany) and 10 U/ml IL-2 (Novartis Pharma, Nümberg, Germany) were also added to the TCM at this step.
Generation of pMHC/anti-CD28 coated beads, T-cell stimulations and readout was performed in a highly defined in vitro system using four different pMHC molecules per stimulation condition and 8 different pMHC molecules per readout condition.
The purified co-stimulatory mouse IgG2a anti human CD28 Ab 9.3 (Jung et al., 1987) was chemically biotinylated using Sulfo-N-hydroxysuccinimidobiotin as recommended by the manufacturer (Perbio, Bonn, Germany). Beads used were 5.6 μm diameter streptavidin coated polystyrene particles (Bangs Laboratories, Illinois, USA).
800.000 beads/200 μl were coated in 96-well plates in the presence of 4×12.5 ng different biotin-pMHC, washed and 600 ng biotin anti-CD28 were added subsequently in a volume of 200 μl. Stimulations were initiated in 96-well plates by co-incubating 1×10^6 CD8+ T cells with 2×10^5 washed coated beads in 200 μl TCM supplemented with 5 ng/ml IL-12 (PromoCell) for 3 days at 37° C. Half of the medium was then exchanged by fresh TCM supplemented with 80 U/ml IL-2 and incubating was continued for 4 days at 37° C. This stimulation cycle was performed for a total of three times. For the pMHC multimer readout using 8 different pMHC molecules per condition, a two-dimensional combinatorial coding approach was used as previously described (Andersen et al., 2012) with minor modifications encompassing coupling to 5 different fluorochromes. Finally, multimeric analyses were performed by staining the cells with Live/dead near IR dye (Invitrogen, Karlsruhe, Germany), CD8-FITC antibody clone SK1 (BD, Heidelberg, Germany) and fluorescent pMHC multimers. For analysis, a BD LSRII SORP cytometer equipped with appropriate lasers and filters was used. Peptide specific cells were calculated as percentage of total CD8+ cells. Evaluation of multimeric analysis was done using the FlowJo software (Tree Star, Oregon, USA). In vitro priming of specific multimer+CD8+ lymphocytes was detected by comparing to negative control stimulations.

As to “37 (IEQGRVVLW; listed as Homo sapiens) [compound 37]”, in the test with HLA-B*44:05, the “Peptide exchange (MHC class I binding score, peptide exchange yield)” value (“Peptide exchange” for short) was “++++ (>75% = ++++)”. The “Wells positive [%]” value in the test with CD8+ T cells is “++++ (>=70% = ++++)”.

On to “19 (MEHSDENIQFW; listed as Homo sapiens) [compound 19]”, for which, in the test with HLA-B*44:05, the “Peptide exchange” value is on record as “++ (>20% = ++)”. The “Wells positive [%]” value with CD8+ T cells is “++ (20%-49% = ++)”.

With “39 (AEAMGKFKQCF; listed as Homo sapiens) [compound 39]”, the “Peptide exchange” value with HLA-B*44:05 was “+++ (>50 = +++)”. In the test on CD8+ T cells, the “Wells positive [%]” value is listed as “+ (<20% = +)”.

For the substance “6 (AELVGPVIPQDW; listed as Homo sapiens) [compound 6]”, in the test with HLA-B*44:05, the “Peptide exchange” value is reported as “+++ (>50 = +++)”. Moreover, the “Wells positive [%]” value in the test on CD8+ T cells was “++ (20%-49% = ++)”.

On to “41 (EENTGKTYF; listed as Homo sapiens) [compound 41]”, for which the “Peptide exchange” value with HLA-B*44:05 is “+++ (>50 = +++)”. The “Wells positive [%]” value in the test with CD8+ T cells is on record as “++ (20%-49% = ++)”.

For the substance “25 (SEKEPGQQY; listed as Homo sapiens) [compound 25]”, the “Peptide exchange” value with HLA-B*44:05 is “++ (>20% = ++)”. For the same substance, the “Wells positive [%]” value with CD8+ T cells is reported as “++ (20%-49% = ++)”.

Consider “66 (AEVTLNNTI; listed as Homo sapiens) [compound 66]”, for which the “Peptide exchange” value with HLA-B*44:05 is reported as “+++ (>50 = +++)”. In the test on CD8+ T cells, the “Wells positive [%]” value is reported as “+ (<20% = +)”.

“15 (MEAELVRRI; listed as Homo sapiens) [compound 15]”: the “Peptide exchange” value with HLA-B*44:05 was “+++ (>50 = +++)”. The “Wells positive [%]” value in the test with CD8+ T cells is given as “+ (<20% = +)”.

On to “44 (SEFGAPRW; listed as Homo sapiens) [compound 44]”, for which the “Peptide exchange” value with HLA-B*44:05 is reported as “+++ (>50 = +++)”. Moreover, in the test with CD8+ T cells, the “Wells positive [%]” value was “++++ (>=70% = ++++)”.

For the substance “421 (TEDYSKQAL; listed as Homo sapiens) [compound 421]”, the “Peptide exchange” value with HLA-B*44:05 was “+++ (>50 = +++)”. Besides, the “Wells positive [%]” value in the test on CD8+ T cells is listed as “+ (<20% = +)”.

In the case of “83 (TEGGTQKTF; listed as Homo sapiens) [compound 83]”, the “Peptide exchange” value with HLA-B*44:05 is “+++ (>50 = +++)”. The “Wells positive [%]” value with CD8+ T cells is “++++ (>=70% = ++++)”.

In the case of “32 (REYEYDLKW; listed as Homo sapiens) [compound 32]”, the “Peptide exchange” value with HLA-B*44:05 is “++++ (>75% = ++++)”. Besides, the “Wells positive [%]” value in the test with CD8+ T cells is listed as “+ (<20% = +)”.

As to “53 (KEDNPSGHTY; listed as Homo sapiens) [compound 53]”, in the test with HLA-B*44:05, the “Peptide exchange” value is listed as “+++ (>50 = +++)”. The “Wells positive [%]” value in the test on CD8+ T cells was “++ (20%-49% = ++)”.

In the case of “70 (AEAEEAMKRL; listed as Homo sapiens) [compound 70]”, in the test with HLA-B*44:05, the “Peptide exchange” value is recorded as “+++ (>50 = +++)”. In addition, the “Wells positive [%]” value with CD8+ T cells was “++ (20%-49% = ++)”.

In the case of “61 (AEYSVHKI; listed as Homo sapiens) [compound 61]”, the “Peptide exchange” value in the test with HLA-B*44:05 is recorded as “+++ (>50 = +++)”. Moreover, the “Wells positive [%]” value in the test with CD8+ T cells was “+ (<20% = +)”.

For “9 (MEVDPIGHLYIF; listed as Homo sapiens) [compound 9]”, in the test with HLA-B*44:05, the “Peptide exchange” value is “++++ (>75% = ++++)”. Moreover, the “Wells positive [%]” value in the test on CD8+ T cells is on record as “+++ (50%-69% = +++)”.

In the case of “16 (NESDRLVYF; listed as Homo sapiens) [compound 16]”, the “Peptide exchange” value with HLA-B*44:05 was “+++ (>50 = +++)”. Besides, the “Wells positive [%]” value in the test on CD8+ T cells was “++ (20%-49% = ++)”.

Consider “29 (TENPKKFKI; listed as Homo sapiens) [compound 29]”, for which the “Peptide exchange” value with HLA-B*44:05 is given as “+++ (>50 = +++)”. Moreover, the “Wells positive [%]” value with CD8+ T cells is listed as “++++ (>=70% = ++++)”.

For the substance “17 (SEIYQPRGF; listed as Homo sapiens) [compound 17]”, in the test with HLA-B*44:05, the “Peptide exchange” value is “+++ (>50 = +++)”. Moreover, the “Wells positive [%]” value in the test with CD8+ T cells is listed as “++++ (>=70% = ++++)”.

Regarding “60 (EEAVRSVAF; listed as Homo sapiens) [compound 60]”, in the test with HLA-B*44:05, the “Peptide exchange” value is “+++ (>50 = +++)”. Further, the “Wells positive [%]” value with CD8+ T cells is “++ (20%-49% = ++)”.

With “45 (EEINELNRMI; listed as Homo sapiens) [compound 45]”, in the test with HLA-B*44:05, the “Peptide exchange” value is reported as “+++ (>50 = +++)”. The “Wells positive [%]” value in the test with CD8+ T cells is recorded as “+++ (50%-69% = +++)”.

For “22 (TEEITEGVW; listed as Homo sapiens) [compound 22]”, the “Peptide exchange” value in the test with HLA-B*44:05 is “++++ (>75% = ++++)”. The “Wells positive [%]” value with CD8+ T cells was “+ (<20% = +)”.

Regarding “33 (IEYENQKRL; listed as Homo sapiens) [compound 33]”, the “Peptide exchange” value with HLA-B*44:05 was “++ (>20% = ++)”. Further, the “Wells positive [%]” value in the test with CD8+ T cells is on record as “++ (20%-49% = ++)”.

With “62 (AEYSVHKITSTF; listed as Homo sapiens) [compound 62]”, the “Peptide exchange” value in the test with HLA-B*44:05 is listed as “++++ (>75% = ++++)”. Also, the “Wells positive [%]” value in the test on CD8+ T cells is reported as “+ (<20% = +)”.

As to “57 (SEATHIITI; listed as Homo sapiens) [compound 57]”, the “Peptide exchange” value with HLA-B*44:05 was “+++ (>50 = +++)”. Moreover, the “Wells positive [%]” value in the test on CD8+ T cells is listed as “++++ (>=70% = ++++)”.

Consider “51 (VEMTGKHQL; listed as Homo sapiens) [compound 51]”, for which, in the test with HLA-B*44:05, the “Peptide exchange” value is recorded as “++ (>20% = ++)”. Moreover, in the test on CD8+ T cells, the “Wells positive [%]” value was “++ (20%-49% = ++)”.

With “420 (MEVDPIGHVY; listed as Homo sapiens) [compound 420]”, the “Peptide exchange” value in the test with HLA-B*44:05 is given as “+++ (>50 = +++)”. Moreover, the “Wells positive [%]” value with CD8+ T cells is on record as “+ (<20% = +)”.

For “36 (LEQASRIWSW; listed as Homo sapiens) [compound 36]”, the “Peptide exchange” value with HLA-B*44:05 was “++++ (>75% = ++++)”. Moreover, the “Wells positive [%]” value with CD8+ T cells is given as “++++ (>=70% = ++++)”.

Regarding “59 (AEIEADRSYQ; listed as Homo sapiens) [compound 59]”, the “Peptide exchange” value with HLA-B*44:05 is “++ (>20% = ++)”. Further, the “Wells positive [%]” value in the test on CD8+ T cells is reported as “+ (<20% = +)”.

Take “49 (SEYVHSSF; listed as Homo sapiens) [compound 49]”: in the test with HLA-B*44:05, the “Peptide exchange” value was “++ (>20% = ++)”. In addition, the “Wells positive [%]” value with CD8+ T cells is reported as “+ (<20% = +)”.

As for “69 (DENIQKFIW; listed as Homo sapiens) [compound 69]”, the “Peptide exchange” value in the test with HLA-B*44:05 was “+++ (>50 = +++)”. Further, in the test with CD8+ T cells, the “Wells positive [%]” value was “++ (20%-49% = ++)”.

With “13 (VEAQDRETW; listed as Homo sapiens) [compound 13]”, the “Peptide exchange” value with HLA-B*44:05 was “++ (>20% = ++)”. In addition, in the test with CD8+ T cells, the “Wells positive [%]” value is listed as “++ (20%-49% = ++)”.

With “47 (TEVHSSPAQRW; listed as Homo sapiens) [compound 47]”, in the test with HLA-B*44:05, the “Peptide exchange” value is “+++ (>50 = +++)”. For the same substance, in the test on CD8+ T cells, the “Wells positive [%]” value is reported as “+++ (50%-69% = +++)”.
